According to patent US12590288B2, “Method of treating an inflammatory disease by administering an agent which binds a surface receptor on a tuft cell that induces an ILC class 2 inflammatory response” (The Broad Institute, Inc., priority 2017, dated 2026):
Several values for one entry are separate records, joined by “and”; a condition that tells them apart may be missing. Identical values can stand only once.

B1: RANKL: cytokine added to small intestinal organoids as ex vivo model of M cell differentiation (protein, UniProt O35235 139-316, looked up)
Tumor necrosis factor ligand …: FSGAPAMMEGSWLDVAQRGKPEAQPFAHLTINAASIPSGSHKVTLSSWYHDRGWAKISNMTLSNGKLRVNQDGFYYLYANICFRHHETSGSVPTDYLQLMVYVVKTSIKIPSSHNLMKGGSTKNWSGNSEFHFYSINVGGFFKLRAGEEISIQVSNPSLLDPDQDATYFGAFKVQDID
B2: rIL-13: recombinant murine IL-13 used to induce mucous metaplasia in cultured airway epithelium (protein, UniProt P20109 19-131, looked up)
Interleukin-13: APGPVPRSVSLPLTLKELIEELSNITQDQTPLCNGSMVWSVDLAAGGFCVALDSLTNISNCNAIYRTQRILHGLCNRKAPTTVSSLPDTKIEVAHFITKLLSYTKQLFRHGPF

Tests used:
[1] = system: small intestinal organoids; experiment: RANKL-mediated in-vitro differentiation of M cells in intestinal organoids (scRNA-seq); format: cell-based, mouse; conditions: 5,434 cells from organoids treated with RANKL for 0, 3 and 6 days
Description: Organoid cultures. Following crypt isolation from the whole small intestine^142, the single cell suspension was resuspended in Matrigel® (BD Bioscience) with 1 μM Jagged-1 peptide (Ana-Spec). Roughly 300 crypts embedded in 25 μl of Matrigel® were seeded onto each well of a 24-well plate. Once solidified, the Matrigel® was incubated in 600 μl culture medium (Advanced DMEM/F12, Invitrogen) with streptomycin/penicillin and glutamax and supplemented with EGF (100 ng/mL, Peprotech®), R-Spondin-1 (600 ng/mL, R&D), Noggin (100 ng/mL, Peprotech®), Y-276432 dihydrochloride monohydrate (10 μM, Tocris™)), N-acetyl-1-cysteine (1 μM, Sigma-Aldrich), N2 (1×, Life Technologies), B27 (1×, Life Technologies) and Wnt3A (25 ng/mL, R&D Systems). Fresh media was replaced on day 3, and organoids were passaged by dissociation with TrypLE and resuspended in new Matrigel® on day 6 with a 1:3 split ratio. For selected experiments, organoids were additionally treated with RANKL (100 ng/mL, Biolegends). For T helper cell co-culture experiments, organoids were cultured with Th1, Th2, Th17 or iTregs. Roughly 10,000 T helper cells were added to each well of 500 organoids and were supplemented either to the medium or suspended in the Matrigel®. Treated organoids were dissociated and subjected to scRNA-seq using both methods. […]

[2] = system: cultured epithelia from proximal or distal trachea; experiment: rIL-13-induced mucous metaplasia in air-liquid interface cultured tracheal epithelia; format: cell-based, mouse; conditions: proximal vs distal tracheal epithelium ALI cultures, rIL-13 vs control, 72 hours
Description: Transwell cultures. Cells were cultured and expanded in complete SAGM (small airway epithelial cell growth medium; Lonza, CC-3118) containing TGF-β/BMP4/WNT antagonist cocktails and 5 μM Rock inhibitor Y-27632 (Selleckbio, S1049). To initiate air-liquid interface (ALI) cultures, airway basal stem cells were dissociated from mouse tracheas and seeded onto transwell membranes. After reaching confluence, media was removed from the upper chamber. Mucociliary differentiation was performed with PneumaCult-ALI Medium (StemCell, 05001). Differentiation of airway basal stem cells on an air-liquid interface was followed by directly visualizing beating cilia in real time after 10-14 days. […]
Statistical analysis of proximodistal mucous metaplasia. For the analysis in FIG. 38H,I, the extent of goblet cell hyperplasia was assessed using counts of Muc5ac^+ goblet cells, normalized to counts of GFP^+ ciliated cells. To quantify differences in the count values between the samples in different conditions (n=6, Foxj 1-GFP mice), Applicants fit a negative binomial regression using the ‘glm.nb’ function from the ‘MASS’ package in R. Pairwise comparisons between means for each condition were computed using post hoc tests and p-values were adjusted for multiple comparisons using Tukey's HSD, implemented using the function ‘pairs’ from the ‘emeans’ package in R.

| Molecule | differentiated M cells identified by unsupervised clustering [1] | induction of goblet cell differentiation (Muc5ac+ goblet cells normalized to GFP+ ciliated cells) [2] |
| --- | --- | --- |
| B1 | 384 cells and 378 cells | – |
| B2 | – | much higher induction of goblet cell differentiation in the distal epithelium |
